{"source": "paper PMC6122996", "about": "(The Journal of Cell Biology, 2018)", "molecules": {"B1": {"name": "GST-CENP-F-NBD (GST-tagged CENP-F fragment containing its Nde1-binding domain) (domain or fragment, human, UniProt P49454 2122-2297, looked up)", "chain": "EKLRVRIEADEKKQLHIAEKLKERERENDSLKDKVENLERELQMSEENQELVILDAENSKAEVETLKTQIEEMARSLKVFELDLVTLRSEKENLTKQIQEKQGQLSELDKLLSSFKSLLEEKEQAEIQIKEESKTAVEMLQNQLKELNEAVAALCGDQEIMKATEQSLDPPIEEEH"}, "B2": {"name": "GFP-Nde1-3E (triple phosphomimetic Nde1) (natural protein, mouse, UniProt Q9CZA6 1-344, looked up)", "chain": "MEDSGKTFESEEEETNYWRDLAMTYKQRAENTQEELREFQEGSREYEAELEAQLQQIETRNRDLLSENNRLRMELESVKEKFEMQHSEGYRQISALEDDLAQTKAIKDQLQKYIRELEQANDDLERAKRATIMSLEDFEQRLNQAIERNAFLESELDEKENLLESVQRLKDEARDLRQELAVQQKQDKPRTPMPGSGQAKRTDMAVQATGSVPSEPVAHRGPSSGLNTPGMFRRGLDSSTSGEPLEPAARISALNIVGDLLRKVGALESKLASCRNFMYDQSPSRTSGPASGRGTKNRDGVDRRPGSTSVGDKGSGKRLEFGKPASEPASPALPSAQGVVKLLL"}}, "key": {"CENP-F": {"molecular_target": "CENP-F (UniProt P49454)", "test": "anti-GFP co-immunoprecipitation", "settings": "reference: GFP WT Nde1; sites T215,T243,T246"}, "[1]": {"molecular_target": "T1, recombinant WT full-length Nde1, not phosphorylated (dephospho-Nde1) (mouse, UniProt Q9CZA6 1-344)", "T1 sequence (looked up)": "B2 chain with E215T, E243T, E246T", "test": "pull-down"}, "[2]": {"molecular_target": "B1", "test": "pull-down"}}, "note": "Residue numbers refer to the chain shown, from its start.", "data": [{"molecule": "Nde1 (from UniProt Q9CZA6) GFP-Nde1-3A", "values": [{"measurement": "binding against the reference", "setting": "CENP-F", "value": "weaker"}]}, {"molecule": "B1", "values": [{"measurement": "binding result", "setting": "[1]", "value": "binds"}]}, {"molecule": "B2", "values": [{"measurement": "fold level pulled down against Nde1-3A", "setting": "[2]", "value": 2.5, "unit": "fold"}]}]}
